# Patent publication US20160194681
# Molecular target: genetically encoded FRET-based MMP-9 activity biosensor with α-helical linker, P09619
# Sequence (P09619 whole entry, looked up): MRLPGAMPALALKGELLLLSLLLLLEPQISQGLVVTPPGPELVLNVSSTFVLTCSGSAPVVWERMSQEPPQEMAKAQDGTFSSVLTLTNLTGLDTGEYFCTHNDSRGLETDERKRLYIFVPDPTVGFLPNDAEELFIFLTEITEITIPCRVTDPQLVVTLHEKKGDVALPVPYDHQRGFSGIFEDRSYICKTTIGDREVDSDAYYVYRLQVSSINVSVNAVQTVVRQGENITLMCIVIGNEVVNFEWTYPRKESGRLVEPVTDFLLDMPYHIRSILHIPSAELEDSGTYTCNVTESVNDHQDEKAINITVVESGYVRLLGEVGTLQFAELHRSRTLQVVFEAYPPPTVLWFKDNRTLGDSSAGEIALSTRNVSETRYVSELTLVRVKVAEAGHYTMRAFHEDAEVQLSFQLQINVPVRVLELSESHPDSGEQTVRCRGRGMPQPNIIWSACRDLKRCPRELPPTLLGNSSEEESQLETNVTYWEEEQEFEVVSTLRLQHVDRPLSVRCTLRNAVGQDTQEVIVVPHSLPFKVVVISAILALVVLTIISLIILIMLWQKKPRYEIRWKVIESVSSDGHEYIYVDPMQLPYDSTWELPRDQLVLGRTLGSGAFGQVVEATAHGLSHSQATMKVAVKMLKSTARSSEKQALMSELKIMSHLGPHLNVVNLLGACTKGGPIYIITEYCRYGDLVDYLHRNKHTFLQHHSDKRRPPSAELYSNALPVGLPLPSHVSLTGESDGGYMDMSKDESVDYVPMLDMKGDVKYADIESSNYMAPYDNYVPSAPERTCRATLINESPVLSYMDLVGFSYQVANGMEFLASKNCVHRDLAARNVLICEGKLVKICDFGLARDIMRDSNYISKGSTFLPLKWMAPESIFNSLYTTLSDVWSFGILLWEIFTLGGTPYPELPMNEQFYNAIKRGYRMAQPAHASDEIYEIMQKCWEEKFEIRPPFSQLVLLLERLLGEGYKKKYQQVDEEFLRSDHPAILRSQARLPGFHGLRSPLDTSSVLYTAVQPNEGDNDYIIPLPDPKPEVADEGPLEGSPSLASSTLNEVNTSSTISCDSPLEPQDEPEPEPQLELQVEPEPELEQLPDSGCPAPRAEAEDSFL
row,Protein,"in vitro cleavage of the biosensor in HEK293 lysate, Western blot with anti-GFP antibody"
1,human auto-activating MMP-9 (protein) APRQRQSTLVLFPGDLRTNLTDRQLAEEYLYRYGYTRVAEMRGESKSLGPALLLLQKQLSLPETGELDSATLKAMRTPRCLVPDLGRFQTFEGDLKWHHHNITYWIQNYSEDLPRAVIDDAFARAFALWSAVTPLTFTRVYSRDADIVIQFGVAEHGDGYPFDGKDGLLAHAFPPGPGIQGDAHFDDDELWSLGKGVVVPTRFGNADGAACHFPFIFEGRSYSACTTDGRSDGLPWCSTTANYDTDDRFGFCPSERLYTQDGNADGKPCQFPFIFQGQSYSACTTDGRSDGYRWCATTANYDRDKLFGFCPTRADSTVMGGNSAGELCVFPFTFLGKEYSTCTSEGRGDGRLWCATTSNFDSDKKWGFCPDQGYSLFLVAAHEFGHALGLDHSSVPEALMYPMYRFTEGPPLHKDDVNGIRHLYGPRPEPEPRPPTTTTPQPTAPPTVCPTGPPTVHPSERPTAGPTGPPSAGPTGPPTAGPSTATTVPLSPVDDACNVNIFDAIAEIGNQLYLFKDGKYWRFSEGRGSRPQGPFLIADKWPALPRKLDSVFEERLSKKLFFFSGRQVWVYTGASVLGPRRLDKLGLGADVAQVTGALRSGRGKMLLFSGRRLWRFDVKAQMVDPRSASEVDRMFPGVPLDTHDVFQYREKAYFCQDRFYWRVSSRSELNQVDQVGYVTYDILQCPED,The MMP-9 activity biosensor is cleaved in vitro by a human auto-activating MMP-9
2,inactive human MMP-9 (protein) APRQRQSTLVLFPGDLRTNLTDRQLAEEYLYRYGYTRVAEMRGESKSLGPALLLLQKQLSLPETGELDSATLKAMRTPRCGVPDLGRFQTFEGDLKWHHHNITYWIQNYSEDLPRAVIDDAFARAFALWSAVTPLTFTRVYSRDADIVIQFGVAEHGDGYPFDGKDGLLAHAFPPGPGIQGDAHFDDDELWSLGKGVVVPTRFGNADGAACHFPFIFEGRSYSACTTDGRSDGLPWCSTTANYDTDDRFGFCPSERLYTQDGNADGKPCQFPFIFQGQSYSACTTDGRSDGYRWCATTANYDRDKLFGFCPTRADSTVMGGNSAGELCVFPFTFLGKEYSTCTSEGRGDGRLWCATTSNFDSDKKWGFCPDQGYSLFLVAAHEFGHALGLDHSSVPEALMYPMYRFTEGPPLHKDDVNGIRHLYGPRPEPEPRPPTTTTPQPTAPPTVCPTGPPTVHPSERPTAGPTGPPSAGPTGPPTAGPSTATTVPLSPVDDACNVNIFDAIAEIGNQLYLFKDGKYWRFSEGRGSRPQGPFLIADKWPALPRKLDSVFEERLSKKLFFFSGRQVWVYTGASVLGPRRLDKLGLGADVAQVTGALRSGRGKMLLFSGRRLWRFDVKAQMVDPRSASEVDRMFPGVPLDTHDVFQYREKAYFCQDRFYWRVSSRSELNQVDQVGYVTYDILQCPED,Inactive human MMP-9 does not cleave the biosensor
